Assay results as given in the supplement of paper PMC10126150.
± gives the standard deviation of the averaged measurements.

The sequences below were run on ATP (assay: switch fluorescence ratio, 500 uM ATP over buffer (Cy3 cluster intensity, sum of 5 cycles each) (fold (ratio)); higher = stronger signal-on switching upon ATP binding; sequences stand for … in TCGTCGGCAGCGTCAGATGTGTATAAGAGACAGTTTTTTTTTTTTTTTTTTTTTTTTT…TC). Settings: aptamer strand: ATP DNA aptamer (quencher-CACCTGGGGGAGTATTGCGGAGGAAGG + anchor), 100 nM annealed; ATP concentration: 500 uM.
Procedure, shortened: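 Five buffer/ATP imaging cycles were run on Cy3-labelled switching-strand clusters on a modified Illumina MiSeq flow-cell, with NaOH stripping and re-annealing between cycles. In each cycle, clusters annealed to 100 nM quencher-labelled ATP aptamer were imaged in selection buffer, then after 15 min with 500 uM ATP at 22 °C. Per cluster, the fluorescence ratio is summed target-cycle over summed buffer-cycle Cy3 intensity, averaged per switch-domain sequence. Only clusters within 100-1000 RFU were kept.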
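Note: ATP exposure 15 min at 22 °C before imaging.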

| Sequence | switch fluorescence ratio |
| --- | --- |
| AACATTTTGC | 0.9941 ± 0.0069 |
| GGTCCGTTTC | 1.01 ± 0.056 |
| TGGCGGTGGC | 0.9806 ± 0.006 |
| GAAGGCATTT | 1.16 ± 0.28 |
| GTTGGTTGGA | 0.983 ± 0.022 |
| GATGCAGTAT | 1.12 ± 0.044 |
| CTGCAGGGGG | 1.05 ± 0.044 |
| GATTGTCCGT | 0.981 ± 0.031 |
| GGGTTTTGAA | 0.984 ± 0.021 |
| AATTTTGATG | 0.971 ± 0.018 |
| CGTATAGTTT | 0.9865 ± 0.0096 |
| AGCTGGAATA | 1 ± 0.06 |
| ACACCGTCTA | 1.11 ± 0.023 |
| AGTATTGGTG | 0.956 ± 0.026 |
| TTTATCTAGG | 1.02 ± 0.017 |
| CACGGAAGCA | 1.07 ± 0.019 |
| GCAATGATGT | 1.06 ± 0.03 |
| CCCCACTTGC | 1.32 ± 0.11 |
| TATAAATAGT | 0.96 ± 0.046 |
| CGGTTTGGTA | 0.976 ± 0.014 |
| GGACAGAGTT | 0.9801 ± 0.0013 |
| CCGTGGCGCA | 1.88 ± 0.21 |
| CGGCATGGGT | 0.989 ± 0.018 |
| TTTAGTAGCT | 1 ± 0.032 |
| TGTGTGACAC | 0.998 ± 0.026 |

| Sequence | switch fluorescence ratio |
| --- | --- |
| TTTTTCACTT | 1 ± 0.036 |
| CCGTTTCCGG | 1.02 ± 0.027 |
| GCTTGAGGTA | 1.02 ± 0.054 |
| TCGACGTTGT | 1.1 ± 0.036 |
| TAAGTGTTTT | 0.994 ± 0.023 |
| AGGGGGTTTT | 1 ± 0.036 |
| CGGGGGGGC | 1.001 ± 0.01 |
| GGTGTTTAAT | 0.979 ± 0.016 |
| ATAACAAACT | 1.05 ± 0.012 |
| ATTTGAGTTA | 1 ± 0.056 |
| AGGGGGCCAG | 1 ± 0.019 |
| GGTCGGGGAT | 1.01 ± 0.022 |
| GTTTATATCC | 1.02 ± 0.013 |
| TTTGGCTGGA | 1.04 ± 0.072 |
| AATAAAAATG | 1.02 ± 0.027 |
| AAGGCGTAGT | 0.979 ± 0.055 |
| ATCGGAGGTC | 0.978 ± 0.037 |
| CATCTCCCTG | 1.06 ± 0.016 |
| GCGTATCGGA | 1.01 ± 0.043 |
| TATGTTCCAA | 1.01 ± 0.03 |
| CGAAAACGGT | 0.999 ± 0.048 |
| TTTATGTCTC | 0.992 ± 0.029 |
| GAGGTGCGGG | 0.99 ± 0.023 |
| AAGTACGACT | 1.1 ± 0.016 |
| GTTCTCCTT | 1.07 ± 0.1 |

| Sequence | switch fluorescence ratio |
| --- | --- |
| TTTGACGACA | 1.11 ± 0.1 |
| TGCAGAGCAC | 1.01 ± 0.028 |
| AGGGTAAAAG | 1.03 ± 0.024 |
| ATGTAACTTA | 1.03 ± 0.027 |
| CGGAAGGCTA | 1.025 ± 0.0069 |
| CGTTTAGGGG | 0.9766 ± 0.0063 |
| GAGAGAGGCT | 0.9988 ± 0.0071 |
| TAGAAGGGTT | 1 ± 0.024 |
| TTTTTTTAAG | 1 ± 0.018 |
| ATTCTTATTT | 0.998 ± 0.028 |
| ATTTTTGGTG | 1.06 ± 0.064 |
| GGGTGAAGAT | 1.011 ± 0.0088 |
| GGGGTTATCA | 0.99 ± 0.014 |
| GTAACTGGGA | 1.009 ± 0.0093 |
| CCTTTTTTGG | 1.02 ± 0.021 |
| TGGGTTAAAG | 0.993 ± 0.016 |
| CTGTTTCGGG | 0.978 ± 0.029 |
| AAAACGACAG | 1.04 ± 0.013 |
| TTTCTGTTGC | 0.9887 ± 0.0047 |
| TTTCGGGCTG | 0.984 ± 0.015 |
| TTCTTTTCTT | 1.02 ± 0.047 |
| TTTGTATGGG | 0.972 ± 0.018 |
| CGGATAGTGC | 1.07 ± 0.11 |
| TTTATTTTTG | 0.992 ± 0.029 |
| TAAGAAAGGG | 0.9572 ± 0.0095 |

| Sequence | switch fluorescence ratio |
| --- | --- |
| TTGGGCAAGG | 1.02 ± 0.026 |
| GTGGGTGCAG | 1.03 ± 0.041 |
| CGGGCCACGA | 1.04 ± 0.026 |
| TATAGCGCTT | 0.9905 ± 0.0035 |
| TTGGCCTATA | 0.973 ± 0.021 |
| TTCAAAGTCA | 1.02 |
| AGGACGCGAC | 1.548 ± 0.014 |
| TTTACCTGGG | 1.01 ± 0.032 |
| AGGTAAAGTT | 0.972 ± 0.014 |
| GCCTTACAGT | 0.985 ± 0.015 |
| GGATTGATGT | 0.972 ± 0.011 |
| GATAGAGGGT | 1.01 ± 0.033 |
| CCTAGGGGTC | 1.09 ± 0.028 |
| TGGACCGGGG | 1.016 ± 0.0034 |
| TATAGGTTTT | 1 ± 0.081 |
| CGGGGTTTTG | 1.014 ± 0.0068 |
| TACTTTTCGT | 0.995 ± 0.024 |
| GGGTTTTGGT | 0.978 ± 0.022 |
| AAGGGACACA | 1.05 ± 0.011 |
| ATGGACAGGT | 1.04 ± 0.031 |
| CTAATTGGTT | 0.988 ± 0.015 |
| TGGTTAAGGA | 1 ± 0.013 |
| GGGCGCAACG | 1.05 ± 0.073 |
| CGGGGGCGGA | 1.04 ± 0.052 |
| TGGGAGGGTG | 1.02 ± 0.067 |

| Sequence | switch fluorescence ratio |
| --- | --- |
| CTTAATGGGG | 0.973 ± 0.024 |
| GCTTGAGGAA | 0.982 ± 0.034 |
| TGGTGTTTTA | 0.994 ± 0.023 |
| TCAAGGGTTA | 1.02 ± 0.011 |
| GACTGCGGGG | 0.987 ± 0.038 |
| GTGTTTTTGA | 1.01 ± 0.034 |
| TGAATCGTTT | 0.937 ± 0.043 |
| AAGTTTTTTC | 1.012 ± 0.0053 |
| TTTTGATGGG | 0.981 ± 0.055 |
| TTAGCCGTTG | 1.03 ± 0.015 |
| ATGTAGGGGG | 0.988 ± 0.013 |
| TGGTTTAGGG | 0.981 ± 0.026 |
| AATCTGTCGT | 0.982 ± 0.054 |
| AAGTCGAGTG | 0.994 ± 0.075 |
| AGGTAGTGTC | 1.03 ± 0.023 |
| GACTTGTAGG | 0.9844 ± 0.0049 |
| TTCGGGTTTT | 1 ± 0.033 |
| GGGGCTTGGG | 0.989 ± 0.043 |
| TTTTTTCCTT | 1.01 ± 0.034 |
| GTTTAAGGAG | 1.02 ± 0.066 |
| ATGAGCATGG | 1.1 ± 0.016 |
| CAGGGACGTT | 0.987 ± 0.02 |
| TAGCCGGAGG | 0.986 ± 0.018 |
| CAAAGTGGTG | 0.97 ± 0.053 |
| TTATGGGAAG | 0.998 ± 0.013 |

| Sequence | switch fluorescence ratio |
| --- | --- |
| GATGTCGAGA | 1.019 ± 0.0051 |
| ACAGCCTGCC | 1.3 ± 0.07 |
| GGGGTGCATG | 0.997 ± 0.054 |
| CTAAAGCGCG | 1.07 ± 0.034 |
| TTCCCGGACT | 1.02 ± 0.024 |
| GGTACCCTGG | 1.03 ± 0.014 |
| AATTTGGCGT | 0.968 ± 0.011 |
| CAGGTGAGTG | 1.251 ± 0.0088 |
| TTCGTTTTGA | 1.02 ± 0.057 |
| CATGGCTTAT | 1.01 ± 0.038 |
| GTGGTTAGGG | 1.01 ± 0.041 |
| TGAGCGGATG | 0.994 ± 0.036 |
| CGGTTGTTGA | 1.01 ± 0.031 |
| TGAGTGGGTC | 1.03 ± 0.013 |
| CTGGCGACAC | 1.39 ± 0.14 |
| CTTCGGTGTT | 0.9967 ± 0.0085 |
| GAGAGGATAG | 0.98157 ± 0.0003 |
| ACCAGCCTGG | 1.01 ± 0.025 |
| CGTCGGGGAA | 1.02 ± 0.027 |
| TAGGCGGGGG | 1 ± 0.02 |
| ACGTTCGGCG | 0.9968 ± 0.0021 |
| CCGGCGCGTT | 1.96 ± 1.3 |
| CGAAGGGTGA | 1.06 ± 0.02 |
| AGAGCGTGGT | 0.999 ± 0.023 |
| AGGGGACGAC | 1.02 ± 0.027 |

| Sequence | switch fluorescence ratio |
| --- | --- |
| ATGTAAGGCG | 1.014 ± 0.0076 |
| CGGTGGGTCT | 1.006 ± 0.0015 |
| TTTTGCTGGT | 1 ± 0.027 |
| CTGGTTCAGA | 0.994 ± 0.013 |
| TATGCCATTT | 1.0337 ± 0.00046 |
| TACGTCCCGG | 1.08 ± 0.014 |
| GGGGTTCGTG | 0.975 ± 0.041 |
| TTTCCTTGTG | 1.36 ± 0.53 |
| TAATGCTGTT | 0.997 ± 0.049 |
| TGGTCGTTCT | 1.03 ± 0.033 |
| ATCGATATAT | 0.991 ± 0.036 |
| TCCACGGGG | 1.12 ± 0.057 |
| TTATGGTGGG | 0.981 ± 0.015 |
| TTTAATGCCG | 0.954 ± 0.027 |
| TTTATGTAAA | 0.9849 ± 0.0081 |
| TTCATTGGGA | 1.01 ± 0.025 |
| TTCAGTGCAT | 1.02 ± 0.051 |
| GTCGGTTGTG | 0.974 ± 0.055 |
| TTTTGTTGAG | 1 ± 0.035 |
| TTTGTTTTAT | 1 ± 0.034 |
| CGTGTTTGGG | 0.994 ± 0.022 |
| GACTGGTATT | 0.991 ± 0.019 |
| TGGTCGTCCG | 0.971 ± 0.057 |
| TACACCCTTC | 1.183 ± 0.011 |
| TACAGGGGTC | 1.06 ± 0.019 |

| Sequence | switch fluorescence ratio |
| --- | --- |
| TAGACCGGAG | 1.04 ± 0.014 |
| GATTGCACTT | 1.02 ± 0.031 |
| TGGGTGGTTT | 1.02 ± 0.019 |
| TAAGGTGGCC | 1.01 ± 0.013 |
| TTTGCTTA | 0.995 ± 0.012 |
| TTTGAAGTCT | 0.978 ± 0.09 |
| ATCGGGGGGG | 1 ± 0.035 |
| TATCGATGTT | 1.005 ± 0.0099 |
| AATGCGTTTT | 1.04 ± 0.023 |
| TGTAGTCTTT | 1.03 ± 0.052 |
| CGCAATTGTT | 2.49 ± 0.55 |
| CCCGGGGTAC | 2.969 ± 0.027 |
| GGGTCTATCG | 0.989 ± 0.034 |
| TATTTTGGGG | 0.988 ± 0.019 |
| ATCGTCGTGC | 0.975 ± 0.015 |
| ACCATGGCTT | 0.976 ± 0.013 |
| GTTACAAGAG | 0.9955 ± 0.0077 |
| GATTACGGGG | 1.006 ± 0.0014 |
| GTTTTAAGCT | 1.023 ± 0.0058 |
| TGGTAAAGGT | 0.985 ± 0.014 |
| GAGGTACTTG | 0.975 ± 0.039 |
| TACCATCTTG | 0.997 ± 0.037 |
| CGTGTCATTA | 1.01 ± 0.031 |
| ATGTTTTAAC | 1.02 ± 0.039 |
| TATTTGAGTT | 0.96526 ± 0.00075 |
